T1: bio-LAG3-mFc (human, UniProt P18627 23-450, biotin-labelled)
T1 construct: also called hLAG-3
T1 sequence (looked up): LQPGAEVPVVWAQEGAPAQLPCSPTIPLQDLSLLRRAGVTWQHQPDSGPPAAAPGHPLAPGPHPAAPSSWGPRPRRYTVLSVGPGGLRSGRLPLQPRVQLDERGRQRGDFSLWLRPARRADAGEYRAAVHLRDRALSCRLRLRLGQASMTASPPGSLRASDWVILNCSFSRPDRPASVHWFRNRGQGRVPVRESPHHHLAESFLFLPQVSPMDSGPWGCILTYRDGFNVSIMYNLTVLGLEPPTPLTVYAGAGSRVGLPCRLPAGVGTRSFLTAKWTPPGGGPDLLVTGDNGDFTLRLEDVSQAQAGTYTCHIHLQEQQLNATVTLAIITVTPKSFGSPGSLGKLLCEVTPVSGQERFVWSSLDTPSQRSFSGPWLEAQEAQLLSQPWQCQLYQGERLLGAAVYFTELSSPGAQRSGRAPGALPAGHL

T2: human LAG-3-his (human, UniProt P18627 23-422)
T2 construct: range 23-422; also called hLAG-3-his; hLAG-3
T2 sequence: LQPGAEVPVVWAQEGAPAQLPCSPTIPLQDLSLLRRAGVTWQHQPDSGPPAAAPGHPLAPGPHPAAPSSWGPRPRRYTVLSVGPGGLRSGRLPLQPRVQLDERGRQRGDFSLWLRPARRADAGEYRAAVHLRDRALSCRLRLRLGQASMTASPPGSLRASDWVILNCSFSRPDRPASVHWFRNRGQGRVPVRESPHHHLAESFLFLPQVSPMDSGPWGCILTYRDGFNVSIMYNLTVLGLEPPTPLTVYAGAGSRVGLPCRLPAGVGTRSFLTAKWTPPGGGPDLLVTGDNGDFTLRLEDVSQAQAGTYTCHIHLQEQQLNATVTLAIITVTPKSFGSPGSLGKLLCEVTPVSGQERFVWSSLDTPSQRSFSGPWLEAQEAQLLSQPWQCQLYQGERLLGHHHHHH


Assays:
bio-LAG3-mFc = molecular target: T1, bio-LAG3-mFc; assay: blocking ELISA, LAG-3 on Daudi cells
human LAG-3-his [1] = molecular target: T2, human LAG-3-his; assay: ELISA on hLAG-3
Procedure: After discarding the liquid, a blocking solution of 5% skimmed milk (Bright skimmed milk powder) diluted with PBS was added at 230 μl per well, followed by incubating at 37° C. for 3 hours or 4° C. overnight (16-18 hours) for blocking. Subsequently, the blocking solution was discarded, and the micropiate was washed 5 times with PBST buffer (pH 7.4 PBS containing 0.05% tweeen-20). Then 50 μl/well of the supernatant (containing the antibody to be tested) or a starting concentration of 10 μg/ml of the antibody to be tested, which was diluted 5 times in gradient, was added, followed by incubating the mixture for 1 hour at 37° C. […] After washing the microplate 5 times with PBST, 50 μl/well TIMB chromogenic substrate (KPL, Cat. No.: 52-00-03) was added, and then incubated for […] at room temperature. Finally, 50 μl/well of 1 M H₂SO₄ was added to stop the reaction. The absorbance value at 450 nm was read by […] GO microplate reader (ThermoFisher, Cat. No.: 51119200). The clones with high affinity were selected according to the OD value or the EC₅₀ value was calculated (for antibodies with known concentrations).

human PD-1 (hFc/his tag) = molecular target: T3, human PD-1 (hFc/his tag) (human, UniProt Q15116 21-167); assay: ELISA on human PD-1
T3 construct: range 21-167; not shown: hFc or his tag

human LAG-3-his [2] = molecular target: T2, human LAG-3-his; assay: ELISA on human LAG-3

T3 sequence (Q15116 21-167, form in doubt): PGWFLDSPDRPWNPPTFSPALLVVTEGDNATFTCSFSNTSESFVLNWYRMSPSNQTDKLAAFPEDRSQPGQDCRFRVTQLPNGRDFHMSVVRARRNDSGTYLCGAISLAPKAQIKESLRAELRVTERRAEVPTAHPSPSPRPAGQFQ

Row | Binder | IC50 (bio-LAG3-mFc) | EC50 (human LAG-3-his [1]) | EC50 (human PD-1 (hFc/his tag)) | EC50 (human LAG-3-his [2])
1 | Ab2315 (antibody, human IgG4 S228P, kappa, V domains shown, LG2315 / LG2343, human kappa / hIgG4) VH: QVQLVQSGAEVKKPGASVKVSCKASGYTFTDYEMHWVKQAPGQGLEWIGGIDPETEGIAYNQKFRGRATLTADKSTSTAYMELRSLRSDDTAVYYCTNSNYYGGREAWFAYWGQGTLVTVSS VL: DIQMTQSPSSLSASVGDRVTITCRASQDIGSSLNWLQQKPGKAIKRLIYATSSLDSGVPSRFSGSGSGTDYTLTISSLQPEDFATYYCLQYVTSPLTFGGGTKVEIKR | 2.18 nM | 0.181 nM | – | –
2 | Ab2314 (antibody, human IgG4 S228P, kappa, V domains shown, human kappa / hIgG4) VH: QVQLVQSGAEVKKPGASVKVSCKASGYTFTDYEMHWVKQAPGQGLEWIGGIDPETEGIAYNQKFRGRATLTADKSTSTAYMELRSLRSDDTAVYYCTNSNYYGGREAWFAYWGQGTLVTVSS VL: DIQMTQSPSSLSASVGDRVTITCRASQDIGSSLNWLQQKPGKAIKRLIYATSSLDSGVPSRFSGSRSGSDYTLTISSLQPEDFATYYCLQYVTSPLTFGGGTKVEIKR | 1.22 nM | 0.237 nM | – | –
3 | Ab2313 (antibody, human IgG4 S228P, kappa, V domains shown, human kappa / hIgG4) VH: QVQLVQSGAEVKKPGASVKVSCKASGYTFTDYEMHWVKQAPGQGLEWIGGIDPETEGIAYNQKFRGRATLTADKSTSTAYMELRSLRSDDTAVYYCTNSNYYGGREAWFAYWGQGTLVTVSS VL: DIQMIQSPSSLSASVGDRVTITCRASQDIGSSLNWLQQKPGGAIKRLIYATSSLDSGVPSRFSGSRSGSDYSLTISSLQPEDFATYYCLQYVTSPLTFGGGTKVEIKR | 3.22 nM | 0.221 nM | – | –
4 | Ab2316 (antibody, human IgG4 S228P, kappa, V domains shown, human kappa / hIgG4) VH: QVQLVQSGAEVKKPGASVKVSCKASGYTFTDYEMHWVKQAPGQGLEWIGGIDPETEGIAYNQKFRGRATLTADKSTSTAYMELRSLRSDDTAVYYCTNSNYYGGREAWFAYWGQGTLVTVSS VL: DIQMTQSPSSLSASVGDRVTITCRASQDIGSSLNWLQQKPGKAIKRLIYATSSLDSGVPSRFSGSRSGSDFTLTISSLQPEDFATYYCLQYVTSPLTFGGGTKVEIKR | 1.5 nM | 0.307 nM | – | –
5 | Ab2318 (antibody, human IgG4 S228P, kappa, V domains shown, human kappa / hIgG4) VH: QVQLVQSGAEVKKPGASVKVSCKASGYTFTDYEMHWVKQAPGQGLEWIGGIDPETEGIAYNQKFRGRATLTADKSTSTAYMELRSLRSDDTAVYYCTNSNYYGGREAWFAYWGQGTLVTVSS VL: DIQMTQSPSSLSASVGDRVTITCRASQDIGSSLNWLQQKPGKAIKRLIYATSSLDSGVPSRFSGSRSGTDFTLTISSLQPEDFATYYCLQYVTSPLTFGGGTKVEIKR | 0.86 nM | 0.28 nM | – | –

Next, values leading:

Row | IC50 (bio-LAG3-mFc) | EC50 (human LAG-3-his [1]) | EC50 (human PD-1 (hFc/his tag)) | EC50 (human LAG-3-his [2]) | Binder
6 | 2.32 nM | 0.131 nM | – | – | Ab2322 (antibody, human IgG4 S228P, kappa, V domains shown, human kappa / hIgG4) VH: QVQLVQSGAEVKKPGASVKVSCKASGYTFTDYEMHWVKQAPGQGLEWIGGIDPETEGIAYNQKFRGRATMTTDTSTSTAYMELRSLRSDDTAVYYCTNSNYYGGREAWFAYWGQGTLVTVSS VL: DIQMTQSPSSLSASVGDRVTITCRASQDIGSSLNWYQQKPGKAPKRLIYATSSLDSGVPSRFSGSRSGSDFTLTISSLQPEDFATYYCLQYVTSPLTFGGGTKVEIKR
7 | 1.85 nM | 0.764 nM | – | – | Ab2319 (antibody, human IgG4 S228P, kappa, V domains shown, human kappa / hIgG4) VH: QVQLVQSGAEVKKPGASVKVSCKASGYTFTDYEMHWVKQAPGQGLEWIGGIDPETEGIAYNQKFRGRATMTTDKSTSTAYMELRSLRSDDTAVYYCTNSNYYGGREAWFAYWGQGTLVTVSS VL: DIQMTQSPSSLSASVGDRVTITCRASQDIGSSLNWLQQKPGKAIKRLIYATSSLDSGVPSRFSGSRSGSDYTLTISSLQPEDFATYYCLQYVTSPLTFGGGTKVEIKR
8 | 1.32 nM | 1.01 nM | – | – | Ab2320 (antibody, human IgG4 S228P, kappa, V domains shown, human kappa / hIgG4) VH: QVQLVQSGAEVKKPGASVKVSCKASGYTFTDYEMHWVKQAPGQGLEWIGGIDPETEGIAYNQKFRGRATMTTDKSTSTAYMELRSLRSDDTAVYYCTNSNYYGGREAWFAYWGQGTLVTVSS VL: DIQMTQSPSSLSASVGDRVTITCRASQDIGSSLNWLQQKPGKAIKRLIYATSSLDSGVPSRFSGSGSGTDYTLTISSLQPEDFATYYCLQYVTSPLTFGGGTKVEIKR
9 | – | – | 0.309 nM | 0.951 nM | LB2382 (bispecific antibody, human IgG4 S228P, kappa) light: EIVLTQSPATLSLSPGERATLSCRASKGVSTSGYSYLHWYQQKPGQAPRLLIYLASYLESGVPARFSGSGSGTDFTLTISSLEPEDFAVYYCQHSRDLPLTFGGGTKVEIKRTVAAPSVFIFPPSDEQLKSGTASVVCLLNNFYPREAKVQWKVDNALQSGNSQESVTEQDSKDSTYSLSSTLTLSKADYEKHKVYACEVTHQGLSSPVTKSFNRGECGGGGSGGGGSGGGGSQVQLVQSGAEVKKPGASVKVSCKASGYTFTDYEMHWVKQAPGQGLEWIGGIDPETEGIAYNQKFRGRATLTADKSTSTAYMELRSLRSDDTAVYYCTNSNYYGGREAWFAYWGQGTLVTVSSGGGGSGGGGSGGGGSDIQMTQSPSSLSASVGDRVTITCRASQDIGSSLNWYQQKPGKAPKRLIYATSSLDSGVPSRFSGSRSGSDFTLTISSLQPEDFATYYCLQYVTSPLTFGGGTKVEIK heavy: not shown
10 | – | – | 0.138 nM | 0.237 nM | LB2383 (bispecific antibody, human IgG4 S228P, kappa) light: EIVLTQSPATLSLSPGERATLSCRASKGVSTSGYSYLHWYQQKPGQAPRLLIYLASYLESGVPARFSGSGSGTDFTLTISSLEPEDFAVYYCQHSRDLPLTFGGGTKVEIKRTVAAPSVFIFPPSDEQLKSGTASVVCLLNNFYPREAKVQWKVDNALQSGNSQESVTEQDSKDSTYSLSSTLTLSKADYEKHKVYACEVTHQGLSSPVTKSFNRGEC heavy: not shown
11 | – | – | 0.332 nM | 0.79 nM | LB2381 (bispecific antibody, human IgG4 S228P, kappa) light: DIQMTQSPSSLSASVGDRVTITCRASQDIGSSLNWYQQKPGKAPKRLIYATSSLDSGVPSRFSGSRSGSDFTLTISSLQPEDFATYYCLQYVTSPLTFGGGTKVEIKGGGGSGGGGSGGGGSQVQLVQSGAEVKKPGASVKVSCKASGYTFTDYEMHWVKQAPGQGLEWIGGIDPETEGIAYNQKFRGRATLTADKSTSTAYMELRSLRSDDTAVYYCTNSNYYGGREAWFAYWGQGTLVTVSSGGGGSGGGGSGGGGSEIVLTQSPATLSLSPGERATLSCRASKGVSTSGYSYLHWYQQKPGQAPRLLIYLASYLESGVPARFSGSGSGTDFTLTISSLEPEDFAVYYCQHSRDLPLTFGGGTKVEIKRTVAAPSVFIFPPSDEQLKSGTASVVCLLNNFYPREAKVQWKVDNALQSGNSQESVTEQDSKDSTYSLSSTLTLSKADYEKHKVYACEVTHQGLSSPVTKSFNRGEC heavy: not shown

Source: patent US20220340657A1 (L AND L BIO CO LTD NINGBO CHINA, published 2022)
